Measured values as given in US7998940B2, “Aptamers to von Willebrand factor and their use as thrombotic disease therapeutics” (Archemix Corp., priority 2004, dated 2011).
Changes are numbered by the printed parent chain.

Assays:
[1] = tested on: full length human vWF; assay: 3-point dot blot screen, full length human vWF; type: binding; settings: 20 nM full length human vWF, ratio of fraction of aptamer bound with target protein to fraction bound without protein
Source text: When a significant positive ratio of binding of DNA in the presence of human or rabbit vWF A1 domain versus in the absence of protein was seen, the pools were cloned using the TOPO TA cloning kit (Invitrogen Cat. #45-0641, Carlsbad, Calif.) according to the manufacturer's instructions. Round 7 and 11 pool templates were cloned and sequenced (218 total sequences), producing 146 unique clones within 12 sequence families of which sequences from six families show vWF target binding activity. All unique clones were assayed twice in a 3-point dot blot screen (no protein target control, 20 nM full length human vWF (Calbiochem Cat. #681300, La Jolla, Calif.), or 20 nM rabbit vWF A1 domain. The data is presented in the third and fourth columns of Table 17 below as the ratio of the fraction of the aptamer bound to the nitrocellulose in the presence of the target protein to the fraction of aptamer bound in the absence of the target protein.

[2] = tested on: rabbit vWF A1 domain (SEQ ID NO 6); assay: 3-point dot blot screen, rabbit vWF A1 domain; type: binding; settings: 3-point dot blot screen, 20 nM rabbit vWF A1 domain; ratio of fraction of aptamer bound with target protein to fraction bound without protein
rabbit vWF A1 domain (SEQ ID NO 6), sequence (as listed by the source): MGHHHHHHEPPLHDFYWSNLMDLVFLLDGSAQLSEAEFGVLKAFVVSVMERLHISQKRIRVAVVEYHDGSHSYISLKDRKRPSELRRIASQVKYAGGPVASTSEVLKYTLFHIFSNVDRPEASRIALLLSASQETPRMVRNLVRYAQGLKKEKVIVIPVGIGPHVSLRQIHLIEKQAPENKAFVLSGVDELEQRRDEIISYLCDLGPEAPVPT
Summary of the method: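 Rabbit vWF A1 domain binding was screened by dot blot using three conditions: no target protein, human vWF, and rabbit vWF A1 domain at 100 nM (20 nM in the screen run twice). Radiolabeled aptamer bound to nitrocellulose was quantified, and results are expressed as the ratio of bound fraction with protein to bound fraction without protein.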

B1: AMX237.H5: DNA SELEX 2 aptamer clone (nucleic acid)
DNA: CTACCTACGATCTGACTAGCTCCAGTGTTTCATTTAATAACCGTGCGGTGCCTCCGTGAGCTTACTCTCATGTAGTTCC
modifications: DNA, backbone not given here
notes: DNA SELEX 2 aptamer clone
- Screen- Human/No Protein [1]: 1.63
- Screen Rabbit/No Protein [2]: 1.61

B2: AMX238.A12: DNA SELEX 2 aptamer clone (nucleic acid)
DNA: CTACCTACGATCTGACTAGCCAGTTCTGGGAAAAATTATTTTTTTATTTCGATCGTATATGCTTACTCTCATGTAGTTCC
modifications: DNA, backbone not given here
notes: DNA SELEX 2 aptamer clone
- Screen- Human/No Protein [1]: 1.23
- Screen Rabbit/No Protein [2]: 0.99

B3: AMX236.C9: DNA SELEX 2 aptamer clone (nucleic acid)
chain: B2 DNA with A59T
modifications: DNA, backbone not given here
notes: DNA SELEX 2 aptamer clone
- Screen- Human/No Protein [1]: 1.24
- Screen Rabbit/No Protein [2]: 1.00

B4: AMX238.F5: DNA SELEX 2 aptamer clone (nucleic acid)
DNA: CTACCTACGATCTGACTAGCGGAATGAGAAGCTGGTGGATTGCTCAGGTCTGCTGGCTGCTTACTCTCATGTAGTTCC
modifications: DNA, backbone not given here
notes: DNA SELEX 2 aptamer clone
- Screen- Human/No Protein [1]: 1.05
- Screen Rabbit/No Protein [2]: 4.40

B5: AMX237.C4: DNA SELEX 2 aptamer clone (nucleic acid)
DNA: CTACCTACGATCTGACTAGCTTTCAGTCTTCCACATTTATAGGGTTTGGCATTGGGTCTGGCTTACTCTCATGTAGTTCC
modifications: DNA, backbone not given here
notes: DNA SELEX 2 aptamer clone
- Screen- Human/No Protein [1]: 0.97
- Screen Rabbit/No Protein [2]: 1.31

B6: AMX237.F5: DNA SELEX 2 aptamer clone (nucleic acid)
DNA: B5 DNA with C24T
modifications: DNA, backbone not given here
notes: DNA SELEX 2 aptamer clone
- Screen- Human/No Protein [1]: 0.99
- Screen Rabbit/No Protein [2]: 1.22

B7: AMX237.F1: DNA SELEX 2 aptamer clone (nucleic acid)
DNA: B5 DNA with A35G
modifications: DNA, backbone not given here
notes: DNA SELEX 2 aptamer clone
- Screen- Human/No Protein [1]: 0.98
- Screen Rabbit/No Protein [2]: 1.22

B8: AMX238.H11: DNA SELEX 2 aptamer clone (nucleic acid)
DNA: B5 DNA with C31T
modifications: DNA, backbone not given here
notes: DNA SELEX 2 aptamer clone
- Screen- Human/No Protein [1]: 0.98
- Screen Rabbit/No Protein [2]: 1.14

B9: AMX237.E5: DNA SELEX 2 aptamer clone (nucleic acid)
DNA: B5 DNA with C32T
modifications: DNA, backbone not given here
notes: DNA SELEX 2 aptamer clone
- Screen- Human/No Protein [1]: 0.97
- Screen Rabbit/No Protein [2]: 1.15

B10: AMX237.G2: DNA SELEX 2 aptamer clone (nucleic acid)
DNA: B5 DNA with C31T, C34T
modifications: DNA, backbone not given here
notes: DNA SELEX 2 aptamer clone
- Screen- Human/No Protein [1]: 1.02
- Screen Rabbit/No Protein [2]: 1.16

B11: AMX236.B3: DNA SELEX 2 aptamer clone (nucleic acid)
chain: CTACCTACGATCTGACTAGCCTTACCTATTCCCTTCTGCGGAATACGTCGAGTACTATGCTTACTCTCATGTAGTTCC
modifications: DNA, backbone not given here
notes: DNA SELEX 2 aptamer clone
- Screen- Human/No Protein [1]: 1.54
- Screen Rabbit/No Protein [2]: 1.41

B12: AMX238.A3: DNA SELEX 2 aptamer clone (nucleic acid)
DNA: CTACCTACGATCTGACTAGCTCAAAGTATTACTTATTGGCAATAAGTCGTTTACTCTATAGCTTACTCTCATGTAGTTCC
modifications: DNA, backbone not given here
notes: DNA SELEX 2 aptamer clone
- Screen- Human/No Protein [1]: 1.36
- Screen Rabbit/No Protein [2]: 1.03

B13: AMX236.A11: DNA SELEX 2 aptamer clone (nucleic acid)
chain: CTACCTACGATCTGACTAGCTTGGTAGCGACTCTGTGGAGCTGCGGTCTGGCCGACGTCAGCTTACTCTCATGTAGTTCC
modifications: DNA, backbone not given here
notes: DNA SELEX 2 aptamer clone
- Screen- Human/No Protein [1]: 2.02
- Screen Rabbit/No Protein [2]: 2.02

B14: AMX236.G4: DNA SELEX 2 aptamer clone (nucleic acid)
chain: B13 chain with C33T, C41A, C48T, C52T, C53T
modifications: DNA, backbone not given here
notes: DNA SELEX 2 aptamer clone
- Screen- Human/No Protein [1]: 1.70
- Screen Rabbit/No Protein [2]: 1.72

B15: AMX236.C12: DNA SELEX 2 aptamer clone (nucleic acid)
chain: B13 chain with T34C, C48T, C52T
modifications: DNA, backbone not given here
notes: DNA SELEX 2 aptamer clone
- Screen- Human/No Protein [1]: 1.99
- Screen Rabbit/No Protein [2]: 2.24

B16: AMX237.D5: DNA SELEX 2 aptamer clone (nucleic acid)
DNA: B13 chain with T32A, C48T, C52T, C53T
modifications: DNA, backbone not given here
notes: DNA SELEX 2 aptamer clone
- Screen- Human/No Protein [1]: 1.41
- Screen Rabbit/No Protein [2]: 1.48
